In this experiment the target is T1, human DLL3 (ACRO, DLL3-H52H4) (human, UniProt Q9NYJ7 27-492).
T1 construct: Bought
T1 sequence: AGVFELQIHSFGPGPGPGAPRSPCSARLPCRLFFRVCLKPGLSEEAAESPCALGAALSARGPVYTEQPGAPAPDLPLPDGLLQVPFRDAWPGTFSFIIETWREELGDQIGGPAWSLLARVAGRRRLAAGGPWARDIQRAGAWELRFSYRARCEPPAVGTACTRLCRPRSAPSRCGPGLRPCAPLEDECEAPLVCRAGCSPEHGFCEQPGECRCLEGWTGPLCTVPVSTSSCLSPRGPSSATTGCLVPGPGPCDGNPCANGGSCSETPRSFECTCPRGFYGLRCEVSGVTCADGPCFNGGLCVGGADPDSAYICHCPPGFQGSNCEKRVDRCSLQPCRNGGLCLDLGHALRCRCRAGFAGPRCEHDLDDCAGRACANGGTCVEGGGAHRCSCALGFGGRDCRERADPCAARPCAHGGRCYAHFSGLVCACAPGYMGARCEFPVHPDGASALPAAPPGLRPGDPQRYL
Kind of experiment: SPR Biacore 8K, Ab captured on Protein A. An excerpt: Test antibodies were affinity-captured with a Protein A biosensor chip (Cat. #29127556, Cytiva) for 18 seconds, and then the antigens human DLL3 (ACRO, DLL3-H52H4), cynomolgus monkey DLL3 (KACTUS, DLL-RM103), mouse DLL3 (KACTUS, DLL-MM103), human CD3D&3E (ACRO, CDD-H52W1), and monkey CD3D&3E (ACRO, CDD-C52W4) were allowed to flow through the surface of the chip for 180 seconds, followed by 600 seconds of dissociation. Reaction signals were detected in real time using a Biacore 8K (Cytiva) instrument to obtain association and dissociation curves. After the dissociation in each experimental cycle, the chip was washed and regenerated with a 10 mM glycine-hydrochloric acid solution (pH 1.5, Cat. #BR-1003-54, Cytiva). Data fitting was performed using a 1:1 Model.

13 molecules from patent US20250376519A1 (JIANGSU HENGRUI PHARMACEUTICALS, published 2025) can be followed below.

For orientation: Kd means the concentration at which binding is half-saturated. A low value points to tighter binding. As a reminder, the koff is a measure of how fast the partners let go of each other. Usually kon stands for the rate constant with which the complex forms. The low end stands for slow association, the high end for fast association.

B1: M6CH1 (antibody, human IgG1, kappa, V domains shown)
VH: EVQLQQSGPVLVKPGASVKMSCKASGYTFTDYYMNWVKQSHGKSLEWIGIINPYSGVTIYNHKFKGKATLTVDKSSNTAYMELNSLTSEDSAVYYCARQDSLLDYAMDYWGQGTSVTVSS
VL: DILMTQSPSSMSVSLGDTVSITCHASQGISGNMGWLQQKPGKSFKGLIYHGANLEDGVPSRFSGSGSGADYSLTISSLESEDFADYYCVQYAQFPYTFGGGTKLEIKR
notes: chimeric antibody of mAb6, human IgG1/kappa; also called M6CHI
Consider B1, for which the dissociation constant Kd turned out to be 0.681 nM, the koff is 0.000657 s⁻¹ and the kon was 965000 M⁻¹ s⁻¹.

B2: hu6L1H1 (antibody, human IgG1, kappa, V domains shown)
VH: EVQLVQSGAEVKKPGASVKVSCKASGYTFTDYYMNWVRQAPGQRLEWMGIINPYSGVTIYNHKFKGRVTITVDKSASTAYMELSSLRSEDTAVYYCARQDSLLDYAMDYWGQGTTVTVSS
VL: DIQMTQSPSSLSASVGDRVTITCHASQGISGNMGWLQQKPGKAPKGLIYHGANLEDGVPSRFSGSGSGTDFTLTISSLQPEDFATYYCVQYAQFPYTFGGGTKVEIKR
Molecule B2 had a Kd of 2.81 nM, an off-rate constant (koff) of 0.00225 s⁻¹ and an association rate constant (kon) of 798000 M⁻¹ s⁻¹.

B3: hu6L4H6 (antibody, human IgG1, kappa, V domains shown)
VH: EVQLVQSGSELKKPGASVKVSCKASGYTFTDYYMNWVRQAPGQGLEWMGIINPYSGVTIYNHKFKGRFVLSVDKSSNTAYLQISSLKAEDTAVYYCARQDSLLDYAMDYWGQGTTVTVSS
VL: DIQMTQSPSSLSASVGDRVTITCHASQGISGNMGWLQQKPGKAPKGLIYHGANLEDGVPSRFSGSGSGADYTLTISSLQPEDFADYYCVQYAQFPYTFGGGTKVEIKR
B3 yielded a Kd of 0.424 nM, a dissociation rate constant (koff) of 0.000811 s⁻¹ and a kon of 1.91e+06 M⁻¹ s⁻¹.

B4: hu6L1H3 (antibody, human IgG1, kappa, V domains shown)
VH: EVQLVQSGAEVKKPGASVKVSCKASGYTFTDYYMNWVRQAPGQRLEWIGIINPYSGVTIYNHKFKGRATLTVDKSANTAYMELSSLRSEDTAVYYCARQDSLLDYAMDYWGQGTTVTVSS
VL: DIQMTQSPSSLSASVGDRVTITCHASQGISGNMGWLQQKPGKAPKGLIYHGANLEDGVPSRFSGSGSGTDFTLTISSLQPEDFATYYCVQYAQFPYTFGGGTKVEIKR
Consider B4, for which the Kd was determined as 2.76 nM, the koff was 0.00224 s⁻¹ and the kon was determined as 812000 M⁻¹ s⁻¹.

B5: hu6L3H2 (antibody, human IgG1, kappa, V domains shown)
VH: EVQLVQSGAEVKKPGASVKVSCKASGYTFTDYYMNWVRQAPGQRLEWMGIINPYSGVTIYNHKFKGRVTLTVDKSANTAYMELSSLRSEDTAVYYCARQDSLLDYAMDYWGQGTTVTVSS
VL: DIQMTQSPSSLSASVGDRVTITCHASQGISGNMGWLQQKPGKSFKGLIYHGANLEDGVPSRFSGSGSGADYTLTISSLQPEDFATYYCVQYAQFPYTFGGGTKVEIKR
B5 showed a Kd of 1.59 nM, a koff of 0.00114 s⁻¹ and an association rate constant (kon) of 716000 M⁻¹ s⁻¹.

B6: hu6L1H2 (antibody, human IgG1, kappa, V domains shown)
VH: EVQLVQSGAEVKKPGASVKVSCKASGYTFTDYYMNWVRQAPGQRLEWMGIINPYSGVTIYNHKFKGRVTLTVDKSANTAYMELSSLRSEDTAVYYCARQDSLLDYAMDYWGQGTTVTVSS
VL: DIQMTQSPSSLSASVGDRVTITCHASQGISGNMGWLQQKPGKAPKGLIYHGANLEDGVPSRFSGSGSGTDFTLTISSLQPEDFATYYCVQYAQFPYTFGGGTKVEIKR
The molecule B6 came in with a Kd of 2.19 nM, a koff of 0.00173 s⁻¹ and a kon of 787000 M⁻¹ s⁻¹.

B7: hu6L2H3 (antibody, human IgG1, kappa, V domains shown)
VH: EVQLVQSGAEVKKPGASVKVSCKASGYTFTDYYMNWVRQAPGQRLEWIGIINPYSGVTIYNHKFKGRATLTVDKSANTAYMELSSLRSEDTAVYYCARQDSLLDYAMDYWGQGTTVTVSS
VL: DIQMTQSPSSLSASVGDRVTITCHASQGISGNMGWLQQKPGKAPKGLIYHGANLEDGVPSRFSGSGSGADYTLTISSLQPEDFATYYCVQYAQFPYTFGGGTKVEIKR
Turning to B7, the dissociation constant (Kd) worked out at 2.01 nM, the koff was 0.00139 s⁻¹ and the kon is 695000 M⁻¹ s⁻¹.

B8: hu6L3H1 (antibody, human IgG1, kappa, V domains shown)
VH: EVQLVQSGAEVKKPGASVKVSCKASGYTFTDYYMNWVRQAPGQRLEWMGIINPYSGVTIYNHKFKGRVTITVDKSASTAYMELSSLRSEDTAVYYCARQDSLLDYAMDYWGQGTTVTVSS
VL: DIQMTQSPSSLSASVGDRVTITCHASQGISGNMGWLQQKPGKSFKGLIYHGANLEDGVPSRFSGSGSGADYTLTISSLQPEDFATYYCVQYAQFPYTFGGGTKVEIKR
For the molecule B8, the equilibrium dissociation constant (Kd) came out at 2.02 nM, the koff is 0.00144 s⁻¹ and the kon was determined as 715000 M⁻¹ s⁻¹.

B9: hu6L2H1 (antibody, human IgG1, kappa, V domains shown)
VH: EVQLVQSGAEVKKPGASVKVSCKASGYTFTDYYMNWVRQAPGQRLEWMGIINPYSGVTIYNHKFKGRVTITVDKSASTAYMELSSLRSEDTAVYYCARQDSLLDYAMDYWGQGTTVTVSS
VL: DIQMTQSPSSLSASVGDRVTITCHASQGISGNMGWLQQKPGKAPKGLIYHGANLEDGVPSRFSGSGSGADYTLTISSLQPEDFATYYCVQYAQFPYTFGGGTKVEIKR
Molecule B9 gave a Kd of 2.19 nM, a koff of 0.00155 s⁻¹ and a kon of 709000 M⁻¹ s⁻¹.

B10: hu6L3H3 (antibody, human IgG1, kappa, V domains shown)
VH: EVQLVQSGAEVKKPGASVKVSCKASGYTFTDYYMNWVRQAPGQRLEWIGIINPYSGVTIYNHKFKGRATLTVDKSANTAYMELSSLRSEDTAVYYCARQDSLLDYAMDYWGQGTTVTVSS
VL: DIQMTQSPSSLSASVGDRVTITCHASQGISGNMGWLQQKPGKSFKGLIYHGANLEDGVPSRFSGSGSGADYTLTISSLQPEDFATYYCVQYAQFPYTFGGGTKVEIKR
In turn, B10 displayed a Kd of 1.88 nM, a dissociation rate constant (koff) of 0.00135 s⁻¹ and an on-rate constant (kon) of 718000 M⁻¹ s⁻¹.

B11: M98CH1 (antibody, human IgG1, kappa, V domains shown)
VH: EVQLVESGGGLVKPGGSLKLSCAASGFTFSDYGIHWVRQAPEKGLEWVAYISSGGYTIYYADTVKGRFTISRDNAKNTLFLQMTSLRSEDTAMYYCARGDYDDIFYTMDYWGQGTSVTVSS
VL: DIQMTQTTSSLSASLGDRVTISCRASRDITKFLNWYQQKPDGTVKLLIYYTSRLHSGVPSRFSGSGSGTDYSLTISNLDQEDIATYFCQQGNTLPWTFGGGTKLDIKR
notes: chimeric antibody of mAb98, human IgG1/kappa; also called M98CHI
B11 returned a Kd of 0.429 nM, a koff of 0.000682 s⁻¹ and an association rate constant (kon) of 1.59e+06 M⁻¹ s⁻¹.

B12: hu98L1H2 (antibody, human IgG1, kappa, V domains shown)
VH: EVQLVESGGGLVQPGGSLRLSCAASGFTFSDYGIHWVRQAPGKGLEWVAYISSGGYTIYYADTVKGRFTISRDNAKNSLYLQMNSLRAEDTAVYYCARGDYEDIFYTMDYWGQGTTVTVSS
VL: DIQMTQSPSSLSASVGDRVTITCRASRDITKFLNWYQQKPGKAPKLLIYYTSRLHSGVPSRFSGSGSGTDFTLTISSLQPEDFATYYCQQGNTLPWTFGGGTKVEIKR
B12: the Kd came out at 1.97 nM, the off-rate constant (koff) came out at 0.00307 s⁻¹ and the kon was found to be 1.56e+06 M⁻¹ s⁻¹.

B13: hu30L1H7 (antibody, human IgG1, kappa)
heavy: not shown
light: DIVMTQSPDSLAVSLGERATINCKASENVGYVSWYQQKPGQPPKLLIYGASNRYTGVPDRFSGSGSGTDFTLTISSLQAEDVAVYYCGQSYSYPLTFGQGTKLEIKRTVAAPSVFIFPPSDEQLKSGTASVVCLLNNFYPREAKVQWKVDNALQSGNSQESVTEQDSKDSTYSLSSTLTLSKADYEKHKVYACEVTHQGLSSPVTKSFNRGEC
B13 yielded a Kd of 1.16 nM, a dissociation rate constant (koff) of 0.00115 s⁻¹ and a kon of 985000 M⁻¹ s⁻¹.
